Biological target: enhanced green fluorescent protein-labeled BLM (BLM-eGFP) (not stated (Gallus gallus or human BLM cloned))
Assay: optical tweezers with confocal fluorescence microscopy

How did the rupture force of the DNA tether bridged by the oligomeric BLM turn out when “enhanced green fluorescent protein-labeled BLM (BLM-eGFP) (domain or fragment)” was run?
Its rupture force of the DNA tether bridged by the oligomeric BLM is less than 300 pN.

— publication PMC9191346
